Laboratory results from US20070172423A1, “Composition and method for modulating vasculogenesis for angiogenesis” (priority 1998, published 2007).

Experiments:
Type in all cases: cell-based
aortic rings = experiment: Aortic ring assay
Protocol: (§1) Cell migration assays were performed on growth arrested confluent HMVEC, BAEC or hSMC cells. Cell monolayers were wounded with a rubber policeman and washed with serum-free medium. Dishes were then incubated for 20 hours in serum-free medium containing VEGF165, PDGF-AA, (R&D Systems, Minneapolis USA) or PDGF-CC. Each assay included two dishes per condition and was repeated three times independently. Cells were photographed at 40× magnification, and migration percentage corresponding to the ratio between area of the cells and the total area of the wound (Biocom visiol@b 2000 version 4.52, San Diego). For HMVEC proliferation assay, cells were seeded in 96-well plates (5 wells per condition), and incubated with VEGF, PDGF-AA, or PDGF-CC (50 ng/ml) after serum starvation. After 7 days, viable cells were counted using the cell Titer-glo luminescent cell viability assay. For NIH-3T3 and hSMC proliferation assay, cells cultured in 96-well plates were serum-starved overnight, followed by treatment with growth factors at different concentrations. Two days later, cell numbers were counted and proliferation percentage calculated, using cells cultured in medium containing 10% serum as control. Aortic ring assay was performed as described 51. Briefly, one-millimeter long aortic rings were embedded in gels of rat tail interstitial collagen and cultured at 37° C., supplemented with different growth factors (50 ng/ml). Aortic rings were analysed at day 9 of culturing. Experiments included three explants per condition and were repeated at least twice. Aortic rings were photographed at 25× magnification.
Although PDGFR-α is expressed on endothelial cells (Edelberg et al., Journal of Clinical Investigation, 1998 102:837-43; Smits et al., Growth Factors, 1989 2:1-8; Bar et al., Endocrinology, 1989 124:1841-8; Beitz et al., Proc Natl Acad Sci USA, 1991 88:2021-5; Marx et al., J Clin Invest, 1994 93:131-9; Shinbrot et al., Dev. Dyn., 1994 199:169-175), little is known about the functional consequence of PDGFR-α signaling in these cells. […] We also tested the effect of PDGF-CC on cultured aortic rings, as this assay allows assessment of the outgrowth of microvessels from an intact vessel in vitro (Blacher et al., Angiogenesis, 2001 4:133-42). Results are graphically represented as the number of microvessels and the distance over which they grew out from the aortic ring. Each experiment included three explants per condition and was repeated at least twice. At day 9 after culturing, microvessels and the distance of their outgrowth were quantified and evaluated using Student's t test. In baseline conditions, only a small number of microvessels sprouted from the aortic rings—most of them over very short distances (0.25 mm from the aortic ring)—and only a small fraction (<5%) growing out over longer distances (>0.5 mm from the aortic ring, FIG. 41a). VEGF increased not only the number of sprouting microvessels (P<0.001 at all concentrations versus control), but also the distance over which they grew out (P<0.05 at all concentrations versus control; FIG. 41b,f). At 30 ng/ml, PDGF-CC increased the number of microvessels (P<0.001 versus control, FIG. 41e,g) and increased the distance of vessel outgrowth at 5 ng/ml (P<0.01 versus control, FIG. 41g). […] A similar bell-shaped dose-response relationship has been documented for other members of the VEGF/PDGF-superfamily (Jin et al., J Mol Neurosci, 2000 14:197-203). […]

[1] = test system: human foreskin fibroblasts; experiment: Mitogenicity for fibroblasts ([3H]thymidine incorporation); settings: 3, 10 or 30 ng/ml, 24 hours
Protocol: The assay was performed essentially as described in Mori et al., J. Biol. Chem., 1991 266:21158-21164. Serum starved human foreskin fibroblasts were incubated for 24 hours with 1 ml of serum-free medium supplemented with 1 mg/ml BSA and 3 ng/ml, 10 ng/ml or 30 ng/ml of full length PDGF-CC (flPDGF-CC), truncated PDGF-CC (cPDGF-CC) or PDGF-AA in the presence of […] [3H]thymidine. After trichloroacetic acid (TCA) precipitation, the incorporation of [3H]thymidine into DNA was determined using a beta-counter. […] PDGF-AA is included in the experiment as a control.

[2] = test system: human microvascular endothelial cells (HMVEC); experiment: Cell migration assay, HMVEC; settings: wounded monolayer, 20 hours, serum-free medium
Protocol: as §1, with “Briefly, one-millimeter long aortic rings were embedded in gels of rat tail interstitial collagen and cultured at 37° C., supplemented with different growth factors (50 ng/ml).” left out, “Experiments included three explants per condition and were repeated at least twice. Aortic rings were photographed at 25× magnification.” left out

NIH-3T3 fibroblast cells = experiment: NIH-3T3 proliferation assay; settings: two days, different concentrations
Protocol: as §1, with “Briefly, one-millimeter long aortic rings were embedded in gels of rat tail interstitial collagen and cultured at 37° C., supplemented with different growth factors (50 ng/ml).” left out, “Experiments included three explants per condition and were repeated at least twice. Aortic rings were photographed at 25× magnification.” left out

[3] = test system: bovine aorta endothelial cells (BAEC); experiment: Cell migration assay, BAEC; settings: wounded monolayer, 20 hours, serum-free medium
Protocol: as §1, with “Briefly, one-millimeter long aortic rings were embedded in gels of rat tail interstitial collagen and cultured at 37° C., supplemented with different growth factors (50 ng/ml).” left out, “Experiments included three explants per condition and were repeated at least twice. Aortic rings were photographed at 25× magnification.” left out

B1: PDGF-CC: recombinant human PDGF-CC core domain homodimer, residues 230-345 of full-length PDGF-C (SEQ ID NO:40), produced in baculovirus infected insect cells (protein)
chain: GRKSRVVDLNLLTEEVRLYSCTPRNFSVSIREELKRTDTIFWPGCLLVKRCGGNCACCLHNCNECQCVPSKVTKKYHEVLQLRPKTGVRGLHKSLTDVALEHHEECDCVCRGSTGG
modifications: homodimer; PDGF-C core domain
Aortic rings; 5 ng/ml, day 9, versus control
  distance of vessel outgrowth: increased
Aortic rings; 30 ng/ml, day 9, versus control
  number of microvessels: increased
Aortic rings; FIG. 41 legend
  concentration of maximal stimulation of perivascular fibroblast-like cells: 5 to 10 ng/mL
Aortic rings; bell-shaped dose-response, less potent at 50 ng/ml
  concentration of maximum effect on microvessel sprouting: 30 ng/mL
Aortic rings; day 9, versus control
  number and emigration of perivascular fibroblast-like cells: significantly increased
[1]
  mitogenic activity on fibroblasts: potent mitogen
[2]
  migration of HMVECs: stimulated
NIH-3T3 fibroblast cells
  proliferation of cultured NIH-3T3 fibroblast cells: stimulated
[3]
  migration of BAEC: enhanced
